In US20250195629A1, “SITE-SPECIFIC BRAIN THERAPEUTICS” (William Marsh Rice University, priority 2023, published 2025):
Where two headings read alike, the source gives them in different places.

Tested on: dopamine receptor D1+ or D2+ expressing cells in the CPu
Type: in vivo, mouse
Protocol: c-Fos activation with engineered AADC—Three groups of mice underwent FUS-BBBO procedure to target a single site at left striatum immediately after intravenous injection of recombinant protein AADC-IKVAV (SEQ ID NO: 23) (20 mg/mL, 250 mg/kg) or equivalent volume of PBS buffer (n=5 mice for FUS alone+L-DOPA group). After 48 h, the mice were given a single dose of L-DOPA (0.1 mg/mL, 2 mg/kg, i.p.; Spectrum Chemical) 10 min after injection of carbidopa (1 mg/mL, 25 mg/kg, i.p.; Sigma-Aldrich), both of which were dissolved in sterile saline containing 2.5 and 0.125 mg/mL ascorbic acid. […] After 2 hours, the mice were euthanized by transcardial perfusion, and their brains were extracted and sliced into 50 μm coronal sections following 24-48 hours of fixation.
The section displaying the strongest AADC fluorescence was selected as the representative for each mouse, and its adjacent section was stained separately to identify c-Fos and dopamine receptor D1 and D2 positive cells. The procedure was carried out as follows: (1) block sections in 10% normal goat serum (SouthernBiotech) and 0.3% Triton-X solution in PBS for 1 h at room temperature; (2) incubate with primary rabbit anti-c-Fos (1:2000, 2250S, Cell Signaling Technology) antibody in PBS with 0.3% Triton-X for 2 h at room temperature; (3) after washing three times in PBS (15 min each, the same as below), incubate with primary rat anti-D1 Dopamine Receptor (1:500, D2944, MilliporeSigma) and Guinea pig anti-Dopamine Receptor D2 (1:500, Cat. #376 205, Synaptic Systems) antibodies in 5% normal goat serum and 0.3% Triton-X solution in PBS overnight at 4° C.; (4) after washing three times, incubate with secondary goat anti-rabbit antibody conjugated to Alexa Fluor 647 (1:500, A-21245, ThermoFisher) in PBS with 0.3% Triton-X for 2 h at room temperature; (5) after washing three times, incubate with secondary goat anti-rat antibody conjugated to Alexa Fluor 546 (1:500, A-11081, ThermoFisher) and goat anti-Guinea Pig antibody conjugated to Alexa Fluor 488 (1:500, A-11073, ThermoFisher) in 5% normal goat serum and 0.3% Triton-X solution in PBS for 2 h at room temperature; (6) after washing three times, mount sections onto glass slides using the mounting media (Vector Laboratories) with DAPI and air-dry overnight in dark before imaging.
Within the left striatum region, a specific 5×9 binned rectangle area was selected corresponding to the highest observed AADC fluorescence in the adjacent AADC-stained section. Subsequently, images were captured of these areas using a 40× objective. The corresponding contralateral areas in the right striatum were also imaged.
In FIG. 7, we applied the following brightness (white) thresholds for the corresponding channels: 6045 (DAPI, nuclei, not shown), 15,000 (Cy3, D1R), 16,000 (green, D2R), and 6045 (far-red, c-Fos), with a gamma value of 1. In FIG. 11, we applied a Brightness (White) threshold of 6045 for both DAPI (nuclei, not shown) and far-red (c-Fos) channels, with a Gamma value of 1. The images were then overlayed, and the c-Fos+ cells were manually counted. Similarly, the GFAP+ cells were manually counted, as shown in FIG. 15c and FIG. 17, by applying a Brightness (White) threshold of 5686 and a Gamma value of 1 for both the DAPI (nuclei) and far-red (GFAP, purple) channels.
To manually count the c-Fos-positive cells in FIG. 7, three scorers (Z. H., S. N., and R. J.) independently assessed all c-Fos staining sites. R. J. served as the blinded scorer, and the averaged counts from all three scorers were rounded for the final statistical analysis.

| Molecule | c-Fos+ cells expressing D1+ or D2+, FUS-targeted region vs contralateral site (FUS alone + L-DOPA 2 mg/kg i.p., no enzyme) | c-Fos+ cells with no expression of D1+ or D2+ in vicinity of CPu, FUS-targeted vs contralateral (FUS-BBBO only without AADC-IKVAV (FUS alone+L-DOPA)) | c-Fos+ cells expressing D1+ or D2+, FUS-targeted region vs contralateral site (FUS+AADC-IKVAV 250 mg/kg i.v., L-DOPA 2 mg/kg i.p. after 48 h, perfused 2 h later) | c-Fos+ cells with no expression of D1+ or D2+ in vicinity of CPu, FUS-targeted vs contralateral (FUS+AADC-IKVAV alone) | c-Fos+ cells expressing D1+ or D2+, FUS-targeted region vs contralateral site (FUS+AADC-IKVAV without L-DOPA) | c-Fos+ cells with no expression of D1+ or D2+ in vicinity of CPu, FUS-targeted vs contralateral (FUS+AADC-IKVAV+L-DOPA) |
| --- | --- | --- | --- | --- | --- | --- |
| N[C@@H](Cc1ccc(O)c(O)c1)C(=O)O [L-DOPA, reference compound] | No significant change | no significant changes | – | – | – | – |
| AADC-IKVAV: aromatic-L-amino-acid decarboxylase (AADC) protein fused with short peptide IKVAV (SEQ ID NO: 23); CDS SEQ ID NO: 21 (protein, misc_feature 1..1602 Synthetic: AADC-IKVAV) MRGSHHHHHHGMASMTGGQQMGRDLYDDDDKDPMNASEFRRRGKEMVDYMANYMEGIEGRQVYPDVEPGYLRPLIPAAAPQEPDTFEDIINDVEKIIMPGVTHWHSPYFFAYFPTASSYPAMLADMLCGAIGCIGFSWAASPACTELETVMMDWLGKMLELPKAFLNEKAGEGGGVIQGSASEATLVALLAARTKVIHRLQAASPELTQAAIMEKLVAYSSDQAHSSVERAGLIGGVKLKAIPSDGNFAMRASALQEALERDKAAGLIPFFMVATLGTTTCCSFDNLLEVGPICNKEDIWLHVDAAYAGSAFICPEFRHLLNGVEFADSFNFNPHKWLLVNFDCSAMWVKKRTDLTGAFRLDPTYLKHSHQDSGLITDYRHWQIPLGRRFRSLKMWFVFRMYGVKGLQAYIRKHVQLSHEFESLVRQDPRFEICVEVILGLVCFRLKGSNKVNEALLQRINSAKKIHLVPCHLRDKFVLRFAICSRTVESAHVQRAWEHIKELAADVLRAEREGGSGSSGGSGGSGGSGIKVAV | – | – | 6.6 (±1.7) fold | no statistically significant changes | No significant change | no statistically significant changes |
